Assay results reported in patent US20160272937A1, “METHODS OF GENERATING INTERMEDIATE MESODERM CELLS FROM HUMAN PLURIPOTENT STEM CELLS” (THE BRIGHAM AND WOMEN'S HOSPITAL, INC., priority 2013, published 2016).

What was measured:
Assay type in all cases: cell-based, human
CHIR-induced hPSCs [1] = assay: Growth factor screen for PAX2 induction in CHIR-induced mesendodermal cells (immunostaining); conditions: CHIR 24 hours then increasing doses of factor, day 4
Protocol: For immunofluorescence studies, cultures are washed once with PBS (Invitrogen) and fixed in 4% paraformaldehyde for 15 min at room temperature (RT). Fixed cells are then washed three times in PBS and incubated in blocking buffer (0.3% Triton X-100 (Fisher Scientific) and 5% normal donkey serum (EMD Millipore) in PBS) for 1 hour at RT.
The cells are then incubated with primary antibody overnight at 4° C. or for 2 hours at RT in antibody dilution buffer (0.3% Triton X-100 and 1% BSA (Roche) in PBS). Cells are then washed three times in PBS and incubated with Alexa Fluor 488-, 555-, or 647-conjugated secondary antibodies (1:500) (Molecular Probes) in antibody dilution buffer for 1 hour at RT. For immunostaining with Biotinylated Lotus Tetragonolobus Lectin (LTL, Vector Labs), a Streptavidin/Biotin Blocking Kit (Vector Labs) and Alexa Fluor 488- or 647-conjugated Streptavidin (Molecular Probes) were used according to manufacturer's instructions.
Nuclei can be counterstained with DAPI (Sigma). […] Immunofluorescence is visualized using an inverted fluorescence microscope (Nikon Eclipse Ti, Tokyo, Japan). Quantification is performed by counting a minimum of five random fields at 10× magnification.
PAX2 is selected since it is an early marker of IM, and, unlike the markers OSR1 or LHX1 which are also expressed in the adjacent lateral plate mesoderm, PAX2 expression is restricted in mesoderm to the IM.

CHIR-induced hPSCs [2] = assay: Definitive endoderm differentiation of CHIR-induced hPSCs (SOX17/FOXA2 immunostaining)
Protocol: Mesendoderm differentiation—the media is changed to Advanced RPMI (A-RPMI, Invitrogen) supplemented with 1×L-glutamax and 1× penicillin/streptomycin and either CHIR99021 (CHIR, Stemgent), human Wnt3a (R&D systems), and/or human activin A (R&D systems) at the doses described. […] Hepatic differentiation—cells at the definitive endoderm stage are treated with A-RPMI+1×L-glu+1×P/S+1×B27 supplement (Invitrogen)+20 ng/mL BMP-4 (R&D systems)+10 ng/mL FGF2 (Invitrogen) for 5 days, then A-RPMI+1×L-glu+1×P/S+1×B27+10 ng/mL HGF for 5 days, then HCM Hepatocyte Culture Medium (Lonza) supplemented with 20 ng/mL Oncostatin M and 10 ng/mL HGF (Peprotech) for 5 days. Pancreatic differentiation—cells at the definitive endoderm stage are treated with DMEM/F12+2% FBS (Hyclone)+50 ng/mL FGF7 (R&D systems) for 2 days, then high-glucose DMEM (Mediatech)+1% B27+2 μM retinoic acid (Sigma)+0.25 μM KAAD cyclopamine (EMD Millipore)+100 ng/mL recombinant human Noggin (R&D systems) for 4 days, then high-glucose DMEM+1% B27+100 ng/mL Noggin+300 nM indolactam V (Stemgent)+1 μM ALK5 inhibitor II (Axxora) for 4 days. […]
Nuclei can be counterstained with DAPI (Sigma). […] Immunofluorescence is visualized using an inverted fluorescence microscope (Nikon Eclipse Ti, Tokyo, Japan). Quantification is performed by counting a minimum of five random fields at 10× magnification. […]

[3] = test system: hPSC-derived PAX2+LHX1+ cells; assay: SIX2 induction in PAX2+LHX1+ cells (cap mesenchyme differentiation, immunofluorescence); conditions: activin A 10 ng/ml added on day 3, 5 additional days

B1: activin A: human activin A (R&D systems) (protein, UniProt P08476 311-426, looked up)
Inhibin beta A chain: GLECDGKVNICCKKQFFVSFKDIGWNDWIIAPSGYHANYCEGECPSHIAGTSGSSLSFHSTVINHYRMRGHSPFANLKSCCVPTKLRPMSMLYYDDGQNIIKKDIQNMIVEECGCS
modifications: Inhibin beta A chain
PAX2 expression (CHIR-induced hPSCs [1]): no PAX2 expression | number of SOX17+ cells (CHIR-induced hPSCs [2]; activin A added after 48 hours of CHIR treatment, 4 days of differentiation): markedly reduced | efficiency of SOX17+FOXA2+ definitive endoderm generation (CHIR-induced hPSCs [2]; high doses of activin A after 24 hours of CHIR treatment, 2-3 days of subsequent differentiation): greater than 95% | SIX2+ cells by immunofluorescence [3]: small populations of SIX2+ cells
